Results from patent US20150274836A1 (US Dept. of Health and Human Services, published 2015).

How the values were obtained:
[1] = biological target: T1, SD1-human Fc fusion protein (human, UniProt P01857 104-330 = IgG part); test: direct ELISA, coated antigen
T1 construct: domain: CH2 and CH3 in the constant region of human IgG heavy chain gamma 1; also called SD1-hFc

[2] = biological target: T1, SD1-human Fc fusion protein; test: ELISA on coated human mesothelin protein, equilibrium constant by Prism / Scatchard
[3] = biological target: T1, SD1-human Fc fusion protein; test: ELISA on coated human mesothelin protein (FIG. 3C)

T1 sequence (P01857 other isoform, or with tags, fused parts or gaps limits assumed): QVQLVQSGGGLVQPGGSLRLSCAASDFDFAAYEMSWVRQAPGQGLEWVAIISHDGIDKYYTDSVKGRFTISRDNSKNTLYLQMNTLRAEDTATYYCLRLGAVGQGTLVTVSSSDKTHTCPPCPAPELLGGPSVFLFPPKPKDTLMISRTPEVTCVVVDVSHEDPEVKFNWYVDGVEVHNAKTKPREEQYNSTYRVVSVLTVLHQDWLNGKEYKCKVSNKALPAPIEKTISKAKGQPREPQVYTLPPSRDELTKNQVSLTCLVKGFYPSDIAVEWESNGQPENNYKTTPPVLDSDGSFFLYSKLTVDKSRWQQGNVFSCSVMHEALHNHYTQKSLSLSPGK

Binder | binding result [1] | Kd [2] [nM] | Kd [3] [nM]
full-length mouse mesothelin protein (other, also called mMSLN; murine mesothelin) DAEQKACPPGKEPYKVDEDLIFYQNWELEACVDGTMLARQMDLVNEIPFTYEQLSIFKHKLDKTYPQGYPESLIQQLGHFFRYVSPEDIHQWNVTSPDTVKTLLKVSKGQKMNAQAIALVACYLRGGGQLDEDMVKALGDIPLSYLCDFSPQDLHSVPSSVMWLVGPQDLDKCSQRHLGLLYQKACSAFQNVSGLEYFEKIKTFLGGASVKDLRALSQHNVSMDIATFKRLQVDSLVGLSVAEVQKLLGPNIVDLKTEEDKSPVRDWLFRQHQKDLDRLGLGLQGGIPNGYLVLDFNVREAFS | no binding | – | –
full-length human mesothelin protein (other, also called MSLN; full-length mesothelin) EVEKTACPSGKKAPEIDESLIFYKKWELEACVDAALLATQMDRVNAIPFTYEQLDVLKHKLDELYPQGYPESVIQHLGYLFLKMSPEDIRKWNVTSLETLKALLEVNKGHEMSPQVATLIDRFVKGRGQLDKDTLDTLTAFYPGYLCSLSPEELSSVPPSSIWAVRPQDLDTCDPRQLDVLYPKARLAFQNMNGSEYFVKIQSFLGGAPTEDLKALSQQNVSMDLATFMKLRTDAVLPLTVAEVQKLLGPHVEGLKAEERHRPVRDWILRQRQDDLDTLGLGLQGGIPNGYLVLDLSMQEALS | – | 13.6 | 13.6
